T1: recombinant PfPFD5 (6x-His-PfPFD5) (P. falciparum 3D7, UniProt Q8II82 1-248, RED-NHS dye label (labelled protein in MST))
T1 construct: Prefoldin subunit 5 of P. falciparum 3D7, PF3D7_1128100; CDS amplified from Pf3D7 cDNA; Resolved at 30 kDa on SDS-PAGE; also called rPfPFD5; Prefoldin subunit 5; source: E. coli BL21 (λDE3), pET-28a(+), purified (Ni-NTA)
T1 sequence: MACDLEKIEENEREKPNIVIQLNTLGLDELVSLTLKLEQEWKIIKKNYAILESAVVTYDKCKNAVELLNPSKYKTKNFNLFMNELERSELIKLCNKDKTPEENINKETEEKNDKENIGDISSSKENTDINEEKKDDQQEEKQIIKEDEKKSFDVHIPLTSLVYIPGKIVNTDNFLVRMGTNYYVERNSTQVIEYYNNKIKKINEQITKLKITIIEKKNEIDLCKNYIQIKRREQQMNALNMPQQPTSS

B1: recombinant PfPFD3 (6x-His-PfPFD3) (natural protein)
chain: MSFDDLTDNTKSVRNIPGAKFIEHVTEFLQNKNEESILRLARELLLKYKFMEHAFVSRQINTQKKIPELKDALRVVQLLEKRKKIKEKKNLETFFPVEESLYARGIVQKTDKILLWLGANVMVEFPFDEATDLLNQHLERAINLSQEMDNELLWLHEQITTTEINISRIHNYIELKKGMMGKEVDKKTEQVN
modifications: RED-NHS dye label where it was the labelled protein in MST
notes: Prefoldin subunit 3 of P. falciparum 3D7, PF3D7_0718500; CDS amplified from Pf3D7 cDNA; Resolved at 24 kDa on SDS-PAGE; Unlabelled when titrated onto labelled PfPFD5; also called rPfPFD3; Prefoldin subunit 3; source: E. coli BL21 (λDE3), pET-28a(+), purified (Ni-NTA)
B2: recombinant PfPFD6 (6x-His-PfPFD6) (natural protein)
chain: MSQEKISEIIKDISALKTSCEKLNSQLDELITQKVENEMLLEEVKVLEDDSVLHKLVGLVLVKEEKSKCYDTISRRLQYITGEIENRKKVITNSEEKLRKLFSDLEAHAGQRKIPVPQA
notes: Prefoldin subunit 6 of P. falciparum 3D7, PF3D7_0512000; CDS amplified from Pf3D7 cDNA; Resolved at 16 kDa on SDS-PAGE; also called rPfPFD6; Prefoldin subunit 6; source: E. coli BL21 (λDE3), pET-28a(+), purified (Ni-NTA)

How the values were obtained:
[1] = molecular target: T2, PfPFD3 (Prefoldin subunit 3, PF3D7_0718500) (Plasmodium falciparum, UniProt Q8IBR6); test: competitive microscale thermophoresis: labelled PfPFD3-PfPFD1 complex titrated with BPD; type: binding
T2 construct: recombinant 6x-His-PfPFD3 (CDS in pET-28a(+)), RED-NHS labelled; with PfPFD1 (PF3D7_1107500)

[2] = molecular target: T1, recombinant PfPFD5 (6x-His-PfPFD5); test: MST; Monolith NT.115; PfPFD3 or PfPFD5 labelled with RED-NHS dye, titrated with the other PfPFD subunits; 1× PBS pH 7.5, 0.01% tween-20; 10 min at room temperature; steady-state analysis; conditions: both partners purified
[3] = molecular target: B1; test: as above; conditions: both partners purified
[4] = molecular target: B2; test: SPR; AutoLab ESPRIT; recombinant PfK13 (20 μM) immobilised on a gold chip by amine coupling; PfPFD6 injected at 25 nM to 5 μM; PBS; two-state conformational change model, KD by the Integrated Rate Law equation; conditions: both partners purified

Molecule | Kd [1] [nM] | Kd [2] [nM] | Kd [3] [nM] | Kd [4] [nM]
OC(CCN1CCCCC1)(c1ccccc1)C1CC2C=CC1C2 (centres unmarked) [BPD, 1-{bicyclo[2.2.1]hept-5-en-2-yl}-1-phenyl-3-(piperidin-1-yl)propan-1-ol] | 1990 | – | – | –
B1 | – | 1340 | – | –
recombinant PfPFD4 (6x-His-PfPFD4) (natural protein, Prefoldin subunit 4 of P. falciparum 3D7, PF3D7_0904500; CDS amplified from Pf3D7 cDNA; Resolved at 17 kDa on SDS-PAGE; also called rPfPFD4; Prefoldin subunit 4; source: E. coli BL21 (λDE3), pET-28a(+), purified (Ni-NTA)) MGDIKQNKYDLGLDMTVDDQKKIGKFTNLHYKEPLYEHKIKMMKENIMNIDSSIDEVSLAFDSNDIMLNIGDCFFKFDLDYIEEHLEDRKSEELANLNEMELEYKTKLNEKQKLKTELYAKFGNRIDLN | – | 104 | 11300 | –
recombinant PfPFD2 (6x-His-PfPFD2) (natural protein, Prefoldin subunit 2 of P. falciparum 3D7, PF3D7_1416900; CDS amplified from Pf3D7 cDNA; Resolved at 19 kDa on SDS-PAGE; also called rPfPFD2; Prefoldin subunit 2; source: E. coli BL21 (λDE3), pET-28a(+), purified (Ni-NTA)) METKSNVESPNISEPKESKLTYEQIEKDRVQLVSKIEELYQDVVEHKLVLEALENVPSDRRCYRMVGEVLVERTVGEIKPALMDHKNKVEQVIAECQKQLDQKNNEISNFIKSAKAGNLPGGIINGNPSEDTNNLNDKEKKSDGIIF | – | 42.4 | 682 | –
B2 | – | 324 | 1880 | –
recombinant PfK13 (∼43 kDa) (natural protein, Construct limits are not printed. The ~43 kDa band does not fit the full-length 726 aa protein (~83 kDa). It fits the BTB-Kelch propeller region, taken by convention from the BTB domain start at …) TMIDINVGGAIFETSRHTLTQQKDSFIEKLLSGRHHVTRDKQGRIFLDRDSELFRIILNFLRNPLTIPIPKDLSESEALLKEAEFYGIKFLPFPLVFCIGGFDGVEYLNSMELLDISQQCWRMCTPMSTKKAYFGSAVLNNFLYVFGGNNYDYKALFETEVYDRLRDVWYVSSNLNIPRRNNCGVTSNGRIYCIGGYDGSSIIPNVEAYDHRMKAWVEVAPLNTPRSSAMCVAFDNKIYVIGGTNGERLNSIEVYEEKMNKWEQFPYALLEARSSGAAFNYLNQIYVVGGIDNEHNILDSVEQYQPFNKRWQFLNGVPEKKMNFGAATLSDSYIITGGENGEVLNSCHFFSPDTNEWQLGPSLLVPRFGHSVLIANI | – | – | – | 174
recombinant PfPFD1 (6x-His-PfPFD1) (natural protein, Prefoldin subunit 1 of P. falciparum 3D7, PF3D7_1107500; CDS amplified from Pf3D7 cDNA; Resolved at 20 kDa on SDS-PAGE; also called rPfPFD1; Prefoldin subunit 1; source: E. coli BL21 (λDE3), pET-28a(+), purified (Ni-NTA)) MSNLYDILGKAVINKEKKDEFQNLILKSEGFIDDVLHEKLRERQKKRDEILQDLFDMEILIENLKLFVNMKDKSEVETLTSLGCDSYVYADIINKNKIFIQLGYEFYLEMTLEEAIKFLKKKINLYEEKLSYWNKQISHVKAHIQILMRAISNLT | – | 851 | 81.6 | –
